This assay addresses HIVSF162 Env on pseudotyped virions (HIV-1 SF162) (UniProt P19550). The assay can be described thus: cell-based or functional assay.

Regarding human Mab 697D (antibody), the ND50 came to 80 µg/mL.

The values above are taken from patent publication US20050058983A1.
